Test results reported in PMC3808539, “CtpB Assembles a Gated Protease Tunnel Regulating Cell-Cell Signaling during Spore Formation in Bacillus subtilis” (Cell, 2013).
Where a chain is given by its changes, count along the chain named. Names may count otherwise.

B1: WT: wild-type CtpB, PDZ-protease of B. subtilis (protein, UniProt O35002 24-480, looked up)
Carboxy-terminal processing …: GINLLEMDKPQTAAVPATAQADSERDKAMDKIEKAYELISNEYVEKVDREKLLEGAIQGMLSTLNDPYSVYMDKQTAKQFSDSLDSSFEGIGAEVGMEDGKIIIVSPFKKSPAEKAGLKPNDEIISINGESMAGKDLNHAVLKIRGKKGSSVSMKIQRPGTKKQLSFRIKRAEIPLETVFASEKKVQGHSVGYIAISTFSEHTAEDFAKALRELEKKEIEGLVIDVRGNPGGYLQSVEEILKHFVTKDQPYIQIAERNGDKKRYFSTLTHKKAYPVNVITDKGSASASEILAGALKEAGHYDVVGDTSFGKGTVQQAVPMGDGSNIKLTLYKWLTPNGNWIHKKGIEPTIAIKQPDYFSAGPLQLKEPLKVDMNNEDVKHAQVLLKGLSFDPGREDGYFSKDMKKAVMAFQDQNKLNKTGVIDTRTAETLNQQIEKKKSDEKNDLQLQTALKSLFVN
B2: CtpBS309A: inactive CtpB S309A mutant (protein, UniProt O35002 24-480, looked up, variant S309A)
Carboxy-terminal processing …: B1 Carboxy-terminal processing … with S286A

Parameters: species or system Bacillus subtilis
Source text: Figure S1 CtpB Autocleavage and Dimerization, Related to Figures 1 and 2 (A) SDS-PAGE analysis monitoring auto-degradation of CtpB. […] (C) Comparison of the gelfiltration profiles of wild-type CtpB and a Δ86 construct lacking the N-terminal dimerization domain. An SDS-PAGE analysis is shown below the chromatograms. (D) Cleavage assays comparing the activity of wild-type and Δ86 CtpB against the 4B predigested 4FAproc substrate.

| Molecule | auto-degradation |
| --- | --- |
| B1 | auto-degraded at position 36 and 42 |
| B2 | no further degradation |
